Reference: patent publication US20170088585A1 (BAR ILAN UNIVERSITY, published 2017)
Square brackets hold non-standard residues; d marks the D form.

B1: [lLwAsK]: Cyclo-D-leucine-L-leucine-D-tryptophan-L-alanine-D-serine-L-lysine (peptide)
peptide: cyclo([dL]L[dW]A[dS]K)
SMILES: CC(C)C[C@@H]1NC(=O)[C@@H](CC(C)C)NC(=O)[C@H](CCCCN)NC(=O)[C@@H](CO)NC(=O)[C@H](C)NC(=O)[C@@H](Cc2c[nH]c3ccccc23)NC1=O
B2: [aLwHsK]: Cyclo-D-alanine-L-leucine-D-tryptophan-L-histidine-D-serine-L-lysine (peptide)
peptide: cyclo([dA]L[dW]H[dS]K)
SMILES: CC(C)C[C@@H]1NC(=O)[C@@H](C)NC(=O)[C@H](CCCCN)NC(=O)[C@@H](CO)NC(=O)[C@H](Cc2c[nH]cn2)NC(=O)[C@@H](Cc2c[nH]c3ccccc23)NC1=O
B3: [lAwHsK]: Cyclo-D-leucine-L-alanine-D-tryptophan-L-histidine-D-serine-L-lysine (peptide)
peptide: cyclo([dL]A[dW]H[dS]K)
SMILES: CC(C)C[C@H]1NC(=O)[C@H](CCCCN)NC(=O)[C@@H](CO)NC(=O)[C@H](Cc2c[nH]cn2)NC(=O)[C@@H](Cc2c[nH]c3ccccc23)NC(=O)[C@H](C)NC1=O
B4: [lLwHsA]: Cyclo-D-leucine-L-leucine-D-tryptophan-L-histidine-D-serine-L-alanine (peptide)
peptide: cyclo([dL]L[dW]H[dS]A)
SMILES: CC(C)C[C@@H]1NC(=O)[C@@H](CC(C)C)NC(=O)[C@H](C)NC(=O)[C@@H](CO)NC(=O)[C@H](Cc2c[nH]cn2)NC(=O)[C@@H](Cc2c[nH]c3ccccc23)NC1=O
B5: [lLwHsK]: Cyclo-D-leucine-L-leucine-D-tryptophan-L-histidine-D-serine-L-lysine (peptide)
peptide: cyclo([dL]L[dW]H[dS]K)
SMILES: CC(C)C[C@@H]1NC(=O)[C@@H](CC(C)C)NC(=O)[C@H](CCCCN)NC(=O)[C@@H](CO)NC(=O)[C@H](Cc2c[nH]cn2)NC(=O)[C@@H](Cc2c[nH]c3ccccc23)NC1=O
B6: [lLaHsK]: Cyclo-D-leucine-L-leucine-D-alanine-L-histidine-D-serine-L-lysine (peptide)
peptide: cyclo([dL]L[dA]H[dS]K)
SMILES: CC(C)C[C@@H]1NC(=O)[C@@H](CC(C)C)NC(=O)[C@H](CCCCN)NC(=O)[C@@H](CO)NC(=O)[C@H](Cc2c[nH]cn2)NC(=O)[C@@H](C)NC1=O
B7: [lLwHaK]: Cyclo-D-leucine-L-leucine-D-tryptophan-L-histidine-D-alanine-L-lysine (peptide)
peptide: cyclo([dL]L[dW]H[dA]K)
SMILES: CC(C)C[C@@H]1NC(=O)[C@@H](CC(C)C)NC(=O)[C@H](CCCCN)NC(=O)[C@@H](C)NC(=O)[C@H](Cc2c[nH]cn2)NC(=O)[C@@H](Cc2c[nH]c3ccccc23)NC1=O

Each binder was assayed against Aβ40 (UniProt P05067 672-711) (assay: cell-based or functional assay).
Chain of Aβ40 (P05067 672-711 limits assumed): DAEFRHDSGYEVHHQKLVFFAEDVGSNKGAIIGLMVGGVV

Going from B1 to B2, the “Inhibition at 1:1 (ThT assay, Aβ:cyclic peptide)” value falls from 73% to 53%.

Going from B3 to B4, the “Inhibition at 1:1 (ThT assay, Aβ:cyclic peptide)” value rises from 44% to 67%.

Compared with B5, B6 is lower in “Inhibition at 1:1 (ThT assay, Aβ:cyclic peptide)” value: 60% for the first, 4% for the second.

For B7, the “Inhibition at 1:1 (ThT assay, Aβ:cyclic peptide)” value was 56%.

First: B1
Second: B2
The “Inhibition at 1:1/3 (ThT assay, Aβ:cyclic peptide)” value of the first is higher: 49% for the first, 12% for the second.

Compared with B3, B4 is higher in “Inhibition at 1:1/3 (ThT assay, Aβ:cyclic peptide)” value: 3% for the first, 48% for the second.

Compared with B5, B6 is lower in “Inhibition at 1:1/3 (ThT assay, Aβ:cyclic peptide)” value: 32% for the first, 5% for the second.

B7 was tested, and the “Inhibition at 1:1/3 (ThT assay, Aβ:cyclic peptide)” value was 47%.
